Measured values: article PMC5602631, “Crimean-Congo hemorrhagic fever virus nucleocapsid protein has dual RNA binding modes”
Where “and” joins values, the source holds several entries; their conditions need not be identical. Equal entries are not always repeated.

Columns and labels:
[1] = target: CCHFV nucleocapsid protein (N) (Crimean-Congo hemorrhagic fever virus strain 10200) (UniProt P89522); assay: filter binding; conditions: 40 mM Tris-HCl pH 7.4, 80 mM NaCl (or 250 mM), 20 mM KCl, 1 mM DTT, room temperature, 30-45 min
[2] = target: CCHFV nucleocapsid protein (N) (Crimean-Congo hemorrhagic fever virus strain 10200) (UniProt P89522); assay: tryptophan fluorescence; conditions: 40 mM Tris-HCl pH 7.4, 80 mM NaCl (or 250 mM), 20 mM KCl, 1 mM DTT, room temperature, 30-45 min
[3] = target: CCHFV nucleocapsid protein (N) (Crimean-Congo hemorrhagic fever virus strain 10200) (UniProt P89522); assay: BLI; conditions: 40 mM Tris-HCl pH 7.4, 80 mM NaCl (or 250 mM), 20 mM KCl, 1 mM DTT, room temperature, 30-45 min
[4] = target: CCHFV nucleocapsid protein (N) (Crimean-Congo hemorrhagic fever virus …, UniProt P89522 1-482); assay: competition; vs labeled 5' NCR; 40 mM Tris-HCl pH 7.4, 80 mM NaCl (or 250 mM), 20 mM KCl, 1 mM DTT, room temperature, 30-45 min; conditions: protein: recombinant; tags: His (C-terminal per Methods; Results says N-terminal); biotin (BLI); none (fluorescence); single strand
CCHFV nucleocapsid protein (N), sequence (P89522 whole entry): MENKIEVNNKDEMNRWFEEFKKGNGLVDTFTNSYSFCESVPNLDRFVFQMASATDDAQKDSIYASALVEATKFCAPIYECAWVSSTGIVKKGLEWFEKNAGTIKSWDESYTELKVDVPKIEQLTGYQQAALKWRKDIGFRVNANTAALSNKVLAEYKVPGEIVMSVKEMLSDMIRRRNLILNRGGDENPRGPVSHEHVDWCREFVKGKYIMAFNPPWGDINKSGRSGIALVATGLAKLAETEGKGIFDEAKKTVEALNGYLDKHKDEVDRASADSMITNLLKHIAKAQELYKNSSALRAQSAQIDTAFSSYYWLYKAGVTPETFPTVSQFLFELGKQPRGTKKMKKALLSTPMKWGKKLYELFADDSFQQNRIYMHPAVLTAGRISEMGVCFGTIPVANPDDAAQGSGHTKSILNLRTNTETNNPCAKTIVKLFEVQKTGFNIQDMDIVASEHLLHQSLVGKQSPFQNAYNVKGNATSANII

CCHFV nucleocapsid protein (N) (Crimean-Congo hemorrhagic fever virus strain 10200), sequence (P89522 whole entry): as above

## Nonviral ssRNA (30 nt)
[1]
  Kd: 121 nM

## 5' NCR 100 nt
[1]
  Kd: 131 nM

## Gluc RNA
[1]
  Kd: 55 nM and 43 nM

## Wild type panhandle
[2]
  Kd: 48 nM
[3]
  Kd: 41 nM
[1]
  Kd: 42 nM and 47 nM

## CCHF S-segment vRNA
[1]
  Kd: 55 nM

## 5' NCR 60 nt
[1]
  Kd: 131 nM

## 5' NCR (30 nt)
[2]
  Kd: 167 nM
[3]
  Kd: 131 nM
[1]
  Kd: 121 nM and 147 nM

B1: 3' NCR (30 nt) (ssRNA)
RNA: UGGGCGUAAGCGGCACGUGUUUCUUUGAGA
[4]
  binding result: binds
